The record followed here is the nanobody polyreactivity screen of Harvey et al. (2022).

The data set in a line: yeast display, Sf9 membrane polyspecificity reagent, FACS + sequencing; frameworks hold sequencing errors. In short, it runs like this: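 Genes from sorted yeast were amplified by colony PCR, read by MiSeq 2 × 250 sequencing and filtered on CDR length. These cells carried a synthetic nanobody library in Saccharomyces cerevisiae BJ5465 and were sorted by FACS into low and high (top ~1%) gates on anti-HA and streptavidin fluorescence. Polyreactivity is labelled according to the gate of origin.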
With “QVQHVESGGGLVQAGGSLRLSCAASGIIFRDYGMGWYRQAPGKEREFVATITYSGGGTYYADSVKGRFTISRDNAKNTVYLQMNSLKPEDTAVYYCAAYPFYYDLAYDYWGQGTQVTVSS”, the “polyreactivity (PSR sort gate)” value is listed as “low polyreactivity”.
For “QVQHVESGGGLVQAGGSLRLSCAASGITFWSNAKGWYRQAPGKEREMVAAITSSGGSTYYADSVKGRFTISRDNAKNTVYLHMNSLKPEDTAVYYCAAPISSSAGWDSYDYWGQGTQVTVSS”, the “polyreactivity (PSR sort gate)” value is reported as “low polyreactivity”.
As for “QVQHVESGGGLVQAGGSLRLSCAASGLNFTRYVMGWYRQAPGKERELVAVISSGGSTYYADSVKGRFTISRDNAKNTVYLQMNSLKPEDTAVYYCAAYLRYSQVTYDYWGQGTQVTVSS”, the “polyreactivity (PSR sort gate)” value was “high polyreactivity”.
To “QVQHVESGGGLVQAGGSLRLSCAASGLTSVINAMGWYRQAPGKERELVAAMTNGGSTSYADSVKGRFTISRDNAKNPVYLQMNSLKPEDTAVYYWAADIVSSTDYPFDYWGQGTQVTVSS” belongs “low polyreactivity”.
With “QVQHVESGGGLVQAGGSLRLSCAASGNIFGLNAMGWYRQAPGKERELVAAISKSGGSTFYADSVKGRFTISRDNAKNTVYLQMNSLKPEDTAVYYCAADHRYHWAYPRGYYYWGQGTQVTVSS”, the “polyreactivity (PSR sort gate)” value is recorded as “high polyreactivity”.
Regarding “QVQHVESGGGLVQAGGSLRLSCAASGNIIPYNAKAWYRQAPGKERELVATISSGGSTYYADSVKGRFTISRDNAKNTVYLQMNSLKPEDTAVYYCAARGRYPYLYGYWGQGTQVTVSS”, the “polyreactivity (PSR sort gate)” value was “high polyreactivity”.
Consider “QVQHVESGGGLVQAGGSLRLSCAASGRIFAYNAMGWYRQAPGKERELVADISSGGNTYYADSVKGRFTISRDNAKNTVYLQMNSLKPEDTAVYYCAADIALYTHYHRIFDYWGQGTQVTVSS”, for which the “polyreactivity (PSR sort gate)” value is listed as “low polyreactivity”.
Consider “QVQHVESGGGLVQAGGSLRLSCAASGRIFPAYAMGWYRQATGKERELVATISSTGSRSYYADSVKGRFTISRDNAKNTVYLQMNSLKPEDTAVYYCAARQRYKVGGLYGVDYWGQGTQVTVSS”, for which the “polyreactivity (PSR sort gate)” value is recorded as “high polyreactivity”.
Regarding “QVQHVESGGGLVQAGGSLRLSCAASGRIFSGYAMGWYRQAPGKERELVAAINRSGGSTYYADSVKGRFTISRDNAKNTVYLQMNSLKPDDTAVYYCAADKSDVYGYFRQSESYGYWGQGTQVTVSS”, the “polyreactivity (PSR sort gate)” value was “low polyreactivity”.
Regarding “QVQHVESGGGLVQAGGSLRLSCAASGRIFTTYAMGWYIQAPGKERELVAAISRSGGSTYYADSVKGRFTISRDNAKNTVYLQMNSLKPEDTAVYYCAAVPTSNSFRSSFYYWGQGTQVTVSS”, the “polyreactivity (PSR sort gate)” value is listed as “high polyreactivity”.
As for “QVQHVESGGGLVQAGGSLRLSCAASGRIFYFNAMGWYRPAPGKERELVAAISSSSGSTNYADSVQGRFTISRDNAKNTVYLQMNSLKPEATAVYYCAADGYYQDYTFEYDYWGQGTQVTVSS”, the entry is “low polyreactivity”.
To “QVQHVESGGGLVQAGGSLRLSCAASGRIFYNYAMGWYRQAPGKEREFVADIDFNGGSTYYADSGKGRFTISRDNAKTTVYLQMNSLKPDDTAVYYSAAEQDDARYNAWWIGPMYSWGQGTQVTVSS” belongs “low polyreactivity”; to “QVQHVESGGGLVQAGGSLRLSCAASGRIFYSNVMGWYRQAPGKERELVAAISGRTGGTYYADSEKGRFTISRDNAKNTVYLQMNSMKPEDTAVYFCAARVIYYYGSGPYDYWGQGTQVTVSS”, “low polyreactivity”.
Take “QVQHVESGGGLVQAGGSLRLSCAASGRIISYNAMGWYRQAPGKERELVAAISWGGGSTYYADSVKGRFTISRDNAKNTVYLQMNSLKPEDTAVYYCAKGWYRIKRNDYWGQGTQVTVSS”: the “polyreactivity (PSR sort gate)” value is listed as “low polyreactivity”.
For the sequence “QVQHVESGGGLVQAGGSLRLSCAASGRTFDWNAMGWYRQAPGKERELVAAITYSGGGTYYADSVKGRFTISRDNAKNTVYLQMNSLKPEETAVYYCAAGYPGTWSYYYWGQGTQVTVSS”, the “polyreactivity (PSR sort gate)” value was “low polyreactivity”.
In the case of “QVQHVESGGGLVQAGGSLRLSCAASGRTFHQNAMGWYRQAPGKERELVATITAGSGSTYYADSVKGRFTISGDNAKNTVYLQMNSVKPEDTAVYFWNAKWTLYQSDYWYYIYDYCGQGTQVTVSS”, the “polyreactivity (PSR sort gate)” value is “low polyreactivity”.
To “QVQHVESGGGLVQAGGSLRLSCAASGRTFKYYAMGWDRQAPGKERELVAAITRRGTSTYYADSVKGRFTISRDNAKNTVYLQMNSLKPEDTAVYYCNKDSPVTYSSRYGYWGQGTQVTVSS” belongs “high polyreactivity”; to “QVQHVESGGGLVQAGGSLRLSCAASGRTFNLKAMGWYRQAPGKERELVAAISWSGGSTYYADSVKGRFTISRDNAKNTVYLQMNSLKPEDTAVYYCAAETYAYLFHTYDYWGQGTQVTVSS”, “low polyreactivity”.
Regarding “QVQHVESGGGLVQAGGSLRLSCAASGRTFPLNAMGWYRQAPGKERELVYAITWSGGRTYYADSVKGRFTISRDYAKNTVYLQMNSLKPEDTAVYYCAAKRTTWKIQSGYDYWGQGTQVTVSS”, the “polyreactivity (PSR sort gate)” value is on record as “low polyreactivity”.
To “QVQHVESGGGLVQAGGSLRLSCAASGRTFRDYVMGWYRQAPGKETALVAAISTRGASTYYADSVKGRFTISRDNANNTVYLQMNRLKPEDTAVYYCAARSTRRGNEYDYWGQRTQVTVSS” belongs “high polyreactivity”; to “QVQHVESGGGLVQAGGSLRLSCAASGRTFRRNVMGWYRQAPGKERELVAAISSGANTNYADSVKGRFTISRDNAKNTVYLQMNSLKPEDTAVYYCNARWQEPLKYDYWGQGTQVTVSS”, “low polyreactivity”; to “QVQHVESGGGLVQAGGSLRLSCAASGRTFTHYAMGWYRQAPGKERELVAVITTGGSTYYADSVKGRFTISRDNAKNTVYLQMNSLKPEDTAVYYCAATALSGLGYWGQGTQVTVSS”, “low polyreactivity”.
As for “QVQHVESGGGLVQAGGSLRLSCAASGRTLLGNAMGRYRQAPGKEREFVAAISYRGGSTYYADSVKGRFTISRDNAKNTVYLQMNSLKPEDTAVYYCAASSFKYSRFDYWGQGTQVTVSS”, the entry is “low polyreactivity”; as for “QVQHVESGGGLVQAGGSLRLSCAASGRTLRYYAMGGYRRAPGKERELVAAITKSGGSPYYADSVKGRFTISRDNAKNTVYLQMYSLKPEDTAVYYCNKVTYSRAQYIGGAGYYWGQGTQVTVSS”, “high polyreactivity”; as for “QVQHVESGGGLVQAGGSLRLSCAASGSIFAGYAMGWYRQAPGKEWELVAAISRRGGRKYYADSVKGRFTISRDNAKNTVYLQMNSLKPEDTAVYYCAVTTPRGPYGYDYWGQGTQVTVSS”, “high polyreactivity”.
Turning to “QVQHVESGGGLVQAGGSLRLSCAASGSIFAGYANGWYRKAPGKERELVARITDRGGSTDYADSVKGRYTISRDNAKNTVYLQMNSLKPEDTAVYSCAKRGDRYEKRPRDYWGQGTQVTVSS”, the “polyreactivity (PSR sort gate)” value is “low polyreactivity”.
For “QVQHVESGGGLVQAGGSLRLSCAASGSIFAYNAMGCYRQARGKERELVAAITSSGGSTYYADSVKGRFTISRDNAKNTVYLPMNSLKPEDTAVYYCNAYGYFKKYNYWGQGTQVTVSS”, the “polyreactivity (PSR sort gate)” value is listed as “high polyreactivity”.
Take “QVQHVESGGGLVQAGGSLRLSCAASGSIFGTYAMGWYRQAPGKERELVAAIRWSSGSTYYADSVKGRFTISRDNAKYTVYLLMNSLKPEDTAVYYCNAEYVYYWLGATFGYWGQGTQVTVSS”: the “polyreactivity (PSR sort gate)” value was “high polyreactivity”.
Regarding “QVQHVESGGGLVQAGGSLRLSCAASGSIFIANAMGWYRQAPGKERELVAVINWGDGSTYADSVKGRFTISRDNAKNTVYLQMNSLKPEDTAVYYCNAPDEVNDVRYDYWGQGTQVTVSS”, the “polyreactivity (PSR sort gate)” value was “low polyreactivity”.
As to “QVQHVESGGGLVQAGGSLRLSCAASGSIFKPYAMGWYRLAPGKEREFVAAITSSDGTTYYADSVKGRFTISRDNAKNTVYVQMNSLKPEDTAVYYCNAEYYAKYVPFTKYYYWGQGTQVTVSS”, the “polyreactivity (PSR sort gate)” value is “low polyreactivity”.
To “QVQHVESGGGLVQAGGSLRLSCAASGSIFNYYDMGWYRQAPGKEREFVARITIGGSSTNYADSVKGRFTISRDNAKNTVYLQMNSLTPEDTAVYYCAAAQYGIFFSQMDYWGQGTQVTVSS” belongs “low polyreactivity”.
As for “QVQHVESGGGLVQAGGSLRLSCAASGSIFRIYAMGWYRQAPGKERELVAAISVSTGSRTYYADSVKGRFTISRDNAKNTVYLQMNSLKPEDTAVYYCNAESYYDYNYWGQGTQVTVSS”, the entry is “low polyreactivity”; as for “QVQHVESGGGLVQAGGSLRLSCAASGSIFRKNAMGWYRQAPGKERELVAAISSGGGGTYYADSVKGRFTISRDNAKNTVYLQMNSLKPEDTAVFYCNKREGKGGNTKYDYWGQGTQVTVSS”, “low polyreactivity”.
To “QVQHVESGGGLVQAGGSLRLSCAASGSIFRYYTMGWYRQAPGKERELVAAISYSGGRTYYADSVKGRFTISRDNAKNTVYLQMNSLKPEDTAVYYCAAKLLQLRGRGYEYWGQGTQVTVSS” belongs “high polyreactivity”; to “QVQHVESGGGLVQAGGSLRLSCAASGSIFRYYVMGWYSQAPGKERELGAAISSGGRTYYADSVKGRFTISRDNAKNTVYLQMNSLKPEDTAVYYCNAQGLFYWEMDYWGQGTQVTVSS”, “high polyreactivity”.
For “QVQHVESGGGLVQAGGSLRLSCAASGSILGGNAMGWYRQAPGKERELVADISGSGDSTYYADSVKGRFTISRDNAKNTVYLQMNSLKPEETAVYYCAVDYDSYWYGTYVNEYDYWGQGTQVTVSS”, the “polyreactivity (PSR sort gate)” value is listed as “low polyreactivity”.
As for “QVQHVESGGGLVQAGGSLRLSCAASGSILRPNVMGWYRQAPGKDRELVARISSRGVNTYYADSVKGRFTISRDNAKNTVYLQMNSLKPEDTAVYYCNARRAQYYWNRSPKYDYWGQGTQVTVSP”, the entry is “high polyreactivity”; as for “QVQHVESGGGLVQAGGSLRLSCAASGSTFGKNTRGWSRQAPGKERELVAAISSRGGSTYYADSGKGRFTISRDNAKNTVYLQMNSLKPEDTAVYYCAAYSVSLGYDYWGQGTQVTVST”, “high polyreactivity”; as for “QVQHVESGGGLVQAGGSLRLSCAASGSTFRRYAMGWYRQAPGKERELVASITYRGGSTYYADSVKGRFTISRDNAKNTVYLQKNSLKPEDTAVYYCSKKGVYGPLIEYWAQGTQVTVSS”, “high polyreactivity”.
Turning to “QVQHVESGGGLVQAGGSLRLSCAASGSTFSPNAMGWYRQAPGKERELVAAIRWRTGTTYYADSVKGRFTISRDNAKNTVYLQMNSLKPEDTAVYYCAAVYKPPNNKYGSAWEYGYWGQGTQVTVSS”, the “polyreactivity (PSR sort gate)” value is on record as “high polyreactivity”.
